The subject of series [1] is primary rat astrocyte cells. Briefly: Transduction across cell membranes in primary rat astrocyte cells. The class given is cell-based. The protocol:
The in vitro model used to assess transduction across cell membranes was primary rat astrocyte cells. Cells were isolated as described (Innocenti et. al., J. Neurosci. 20:1800-1808, 2000), seeded at ˜3×10^4 cells/cm^2, and cultured in full serum (10% FBS in α-MEM) overnight. Some cells were serum starved by culturing in 0.5% FBS for 1-24 hours prior to treatment with transduction peptides.

For the next series, the system named is 3T3 fibroblasts. Briefly: Transduction of FITC-labeled peptides into 3T3 fibroblasts (fluorescence imaging). The class given is cell-based. Particulars: 50 μM, 1 hour, media with or without serum. The protocol: FITC-(b)[…] (SEQ ID NO: 37)(WLRRIKA (SEQ ID NO: 3) monomer), FITC-(b)[…] (SEQ ID NO: 38)(WLRRIKA (SEQ ID NO: 3) dimer), and FITC-(b)[…] (SEQ ID NO: 39)(WLRRIKA (SEQ ID NO: 3) trimer) were synthesized on a 0.2 mmol scale using Fmoc-based solid phase peptide synthesis. The peptides were solubilized in water to create 3 mM stock solutions. 3T3 fibroblasts, cultured in Dulbecco's Modified Eagle Medium (DMEM) with 2 mM glutamine, pen/strep antibiotic, and 10% fetal bovine serum (FBS), were seeded at a density of 50,000 cells per well (1 ml of 50,000 cells/ml) in 4-well chambered slides (4 slides were used). The slides were incubated at 37° C. with 5% CO2 in a humidified incubator for 4 hours to allow the cells to adhere to the slides. After 4 hours, each well was washed 3 times with phosphate buffered saline (PBS). 50 μl of a 3 mM stock of each peptide as well as a 3 mM stock of fluorescein in water were added to 15 ml tubes containing 3 ml of DMEM with 2 mM glutamine, antibiotic, and 10% FBS and to 15 ml tubes containing 3 ml of serum-free DMEM with 2 mM glutamine and antibiotic. Treatments were performed in duplicate for both serum-containing and serum-free DMEM. On each slide system, each well received media (either with or without serum) with fluorescein, WLRRIKA (SEQ ID NO: 3) monomer, WLRRIKA (SEQ ID NO: 3) dimer, or WLRRIKA (SEQ ID NO: 3) trimer. In all cases, the final peptide or fluorescein concentration was 50 μM per well. Once the treatments were added, the slides were incubated at 37° C. with 5% CO2 in a humidified incubator for 1 hour. Then, each well was washed with PBS 3 times. Following the PBS wash, 0.2 ml trypsin was added to each well to digest residual peptide bound to the outer cellular membranes, and the slides were incubated at 37° C. for 10 minutes. To inactivate the trypsin, 1 ml DMEM with serum was added to each well, and the slides were incubated for 4 hours to allow cells to reattach to the slides. After 4 hours, the cells were washed 3 times in PBS, and 1 ml of DMEM with serum was added to each well. Then, the slides were imaged using a 40× objective. […]

In series [2] the test system is porcine ear skin. Briefly: In vitro skin penetration and transdermal delivery, porcine ear skin in Franz diffusion cell, spectrofluorimetry (Example 3). The following applies: for penetration in both SC and [E+D] compared with nonconjugated P20: all time points studied (0.5-8 h), p<0.05; for transdermal delivery: amount in the receptor phase: detected only at 8 hours post-application; for course of concentration in [E+D]: from 0.5 to 4 hours post-application, no further increase between 4 and 8 hours; for time of maximal rate of penetration in the whole skin (SC+[E+D]): post-application. The protocol:
Fluorescence microscopy was used to visualize the peptides in different skin layers.
Formulations: Except in the experiments involving chemical penetration enhancers, FITC-labeled peptides were dissolved in phosphate-buffered saline (PBS, 10 mM, pH 7.2); the peptide concentration was 100 μM. In the experiment involving penetration enhancers, PBS could not be used as a solvent because of the lipophilic nature of monoolein and oleic acid. Propylene glycol was used as a solvent, since it solubilizes both lipids and peptides. […] The formulations were prepared by mixing monoolein or oleic acid with propylene glycol and adding the peptides to the system immediately thereafter.
Porcine ear skin was used as model skin for in vitro skin penetration studies because of its similarity with human skin, especially regarding histological and biochemical properties and permeability to drugs (33). Freshly excised porcine ears were obtained from a local abattoir. The skin from the outer surface of the ear was carefully dissected; making sure that the subcutaneous fat was maximally removed (34). Maximum care was taken to maintain the integrity of the skin, which was assured by histology. The cleaned porcine ear skin was immediately mounted in a Franz diffusion cell (diffusion area of 1 cm^2; Laboratory Glass Apparatus, Inc, Berkeley, Calif., USA), with the stratum corneum facing the donor compartment (where the formulation was applied) and the dermis facing the receptor compartment, which was filled with PBS (100 mM, pH 7.2, 3 mL). The receptor phase was maintained at 37° C. and under constant stirring. To achieve higher reproducibility, the skin samples were equilibrated to the diffusion cell conditions for 30 minutes before application of any formulation.
PBS solutions or propylene glycol formulations of the peptides (70 μL each) were applied to the skin surface (donor compartment). […] The concentrations of FITC-P20 (SEQ ID NO: 9), FITC-YARA-P20 (SEQ ID NO: 42), and FITC-TAT-P20 (SEQ ID NO: 43) in the skin and receptor phase were determined at 0.5, 1, 2, 4, and 8 hour post-application.
At the end of the experiment, skin surfaces were thoroughly washed with distilled water to remove excess formulation and carefully wiped with a tissue paper. To separate the stratum corneum (SC) from the remaining epidermis (E) and dermis (D), the skin was subjected to tape stripping. The skin was stripped with 15 pieces of adhesive tape (3M, St. Paul, Minn., USA), and the tapes containing the SC were immersed in 3 mL of a water:methanol (1:1 v/v) solution, vortexed for 2 min, and bath sonicated for 30 minutes. The remaining [E+D] was cut in small pieces, vortexed for 2 minutes in 2 mL of a water:methanol (1:1 v/v) solution, and homogenized using a tissue grinder for 1 minute and bath sonication for 30 minutes. The resulting mixture was centrifuged for 1 minute. The peptide present in the receptor phase was concentrated (10×) as follows. Samples (2 mL) of the receptor phase were lyophilized for 24 hours, and the residue was dissolved in 200 μL of a hidroalcoholic (20% of ethanol) solution.
All solutions were subjected to fluorimetry analysis using a Gemini SpectraMax™ platereader (Molecular Devices, Sunnyvale, Calif., USA) with excitation at 495 nm and emission at 518 nm. […] To evaluate the recovery of the peptides from the skin in the extraction procedure, tissues sections (1 cm^2) were spiked with 20 μL of 0.2 and 0.5 mM solutions of the peptides. The skin sections were homogenized using a tissue grinder, vortex-mixer, and bath sonicator, as described above. […] We accounted for such a recovery percentage in the quantification of peptides.

In series [3] the test system is porcine ear skin. Briefly: Fluorescence microscopy of skin sections after peptide application. An excerpt: The skin sections (8 μm) were mounted on glass slides. The slides were visualized without any additional staining or treatment through a 20× objective using a Zeiss microscope (Carl Zeiss, Thornwood, N.Y., USA) equipped with a filter for FITC and AxioVision software.

The test system of series [4] is porcine ear skin. Briefly: Ex vivo skin transduction, porcine ear skin in modified Franz diffusion cell (Example 2). The class given is in vitro ADME. The following applies: for skin penetration: 100 uM, conjugated or alone (FIG. 1, Panel C). The protocol:
The ex vivo model selected for skin transduction studies was freshly excised porcine ears. […] The system was maintained at 37° C. and under constant stirring. […] The amount of peptides that permeated across the skin was determined in the receptor phase; 1.5 mL of the receptor phase was withdrawn, lyophilized and the residue was suspended in 150 μL of water. […] Standard curves of the peptides were used as reference.

A further series deals with Rat aorta. Description: Vasorelaxation of rat aorta rings pre-contracted with KCl (muscle bath). The protocol:
Rat aorta was isolated and dissected free from connective and fat tissue. Transverse rings, 3.0 mm in width, were cut and tied to silk suture. The tissue was suspended in a muscle bath containing a bicarbonate buffer (120 mM NaCl, 4.7 mM KCl, 1.0 mM MgSO4, 1.0 mM NaH2PO4, 10 mM glucose, 1.5 mM CaCl2, and 25 mM […], pH 7.4) and equilibrated with 95% O2/5% CO2 at 37° C. The rings were fixed at one end to a stainless steel wire and attached to a force transducer in muscle perfusion system (Radnotti). The rings were then progressively stretched, and the isometric force generated in response to 110 mM KCl (with equimolar replacement of NaCl in bicarbonate buffer) was determined until the consistent maximal force was produced. Agonists and peptide was added directly to the baths. Tissue that was pre-contracted with 110 mM potassium chloride (KCl) followed by 1.0 mM WL-P20 ([…]p[…], pS is phosphoserine) (SEQ ID NO: 10), where pS is phosphoserine) relaxed compared to untreated control (13% relaxation at 10 minutes, 50% relaxation at 30 minutes, and maximum 88% relaxation at ˜60 minutes, FIG. 4). Percent relaxation was calculated relative to maximum force generated with KCl. […] Such a difference may result from different mechanisms of penetration and/or intracellular localization.

Setting [5] is: PBS vehicle, 4 hours post-application.

Consider eight substances from patent US20100004165A1, “Novel Protein Transduction Domains and Uses Therefor” (The Arizona Board of Regents, a body corporate acting on …, priority 2005, published 2010).

Like-named read-outs stand apart in the source and are kept apart here. Square brackets hold non-standard residues; d marks the D form. Ends that are not written are not given here. * marks the point of attachment. FITC = O=C1OC2(c3ccc(O)cc3Oc3cc(O)ccc32)c2ccc(NC(=S)*)cc21; pS = N[C@@H](COP(=O)(O)O)C(=O)O; βAla = NCCC(=O)O

On to “WL-scrP20: control, the pseudo-monomer WLRRIKA-(WL-scrP20)”, for which the transduction result in series [1] (1 μM), in series [1] (25 μM) and in series [1] (50 μM) was “no transduction was observed” each time.

For the substance FITC-(b)AWLRRIKAWLRRIKA [WLRRIKA dimer], in the series with 3T3 fibroblasts, the “fluorescence within the cells (ability to penetrate the cells)” value (“fluorescence within the cells” below) was “bright fluorescence within the cells”.

Consider YGRKKRRQRRRWLRRASAPLPGLK [TAT-P20], for which, in the series with porcine ear skin [2], the “penetration in both SC and [E+D] compared with nonconjugated P20” value is recorded as “significantly higher”; the “transdermal delivery: amount in the receptor phase” value was found to be 0.027 ± 0.009 nmol; the “course of concentration in [E+D]” value is reported as “progressively increased”; the “time of maximal rate of penetration in the whole skin (SC+[E+D])” value came out at 1 h. In the series on porcine ear skin [3] (4 hours post-application), the “localisation of fluorescence in skin layers” value (shortened to “localisation of fluorescence”) is “strong fluorescence in the SC and viable epidermis”.

Regarding YGRKKRRQRRR [TAT], the “influence of propylene glycol on skin penetration compared to PBS” value in the series on porcine ear skin [2] (4 hours post-application) is given as “did not influence”. Also, in the series with porcine ear skin [2] (setting [5]), the “amount penetrated into the skin (SC+[E+D]) relative to amount that permeated across the skin” value came out at 30 times and the “transdermal delivery: amount found in the receptor phase” value was determined as 0.058 ± 0.008 nmol. For the same substance, in the series with porcine ear skin [2] (propylene glycol, monoolein 10% w/w or oleic acid 5% w/w, 4 h), the “effect of monoolein or oleic acid on topical or transdermal delivery” value was “failed to further increase”. For the same substance, the “localisation of fluorescence” value in the series with porcine ear skin [3] (4 hours post-application) was “strong fluorescent staining of SC and viable epidermis”.

Regarding YARAAARQARA, in the series on porcine ear skin [2], the “amount penetrated into the skin (SC+[E+D]) relative to amount that permeated across the skin” value is 34 times; the “effect of monoolein or oleic acid on topical or transdermal delivery” value was “failed to further increase”; the “influence of propylene glycol on skin penetration compared to PBS” value is on record as “did not influence”; the “penetration in the SC and [E+D] relative to the control peptide FITC-YKAc” value is recorded as 8-10 times. Besides, in the series on porcine ear skin [2], the “transdermal delivery: amount found in the receptor phase” value amounted to 0.053 ± 0.009 nmol. In addition, the “localisation of fluorescence” value with porcine ear skin [3] was “strong fluorescent staining of SC and viable epidermis”.

WLRRIKAWLRRIKAWLRRIKA [W3]: in the series on 3T3 fibroblasts, the “fluorescence within the cells” value is recorded as “bright fluorescence within the cells”. In series [1] (50 μM), the transduction result was “efficient transduction”. In addition, the persistence of transduction entry in series [1] (50 μM for 1 h) was “at least 24 hours”. The “carrying of non-covalently bound P20 across the skin” value in the series with porcine ear skin [4] (100 uM transduction domain, non-covalently bound (FIG. 1, Panel A)) is listed as “did not carry P20”. Moreover, the skin penetration entry in the series on porcine ear skin [4] was “significantly enhanced”. Besides, in the series on porcine ear skin [4] (1 mM W3 used to carry P20 (FIG. 1, Panel B)), the “skin penetration [E+D] of non-covalently bound P20” value was “significant skin penetration”.

For the substance “YARAAARQARAWLRRASAPLPGLK (YARAAARQARAWLRRA[pS]APLPGLK; also: FITC label) [YARA-P20]”, in the series with porcine ear skin [2], the “penetration in both SC and [E+D] compared with nonconjugated P20” value is “significantly higher”; the “transdermal delivery: amount in the receptor phase” value turned out to be 0.031 ± 0.011 nmol; the “course of concentration in [E+D]” value is reported as “progressively increased”; the “time of maximal rate of penetration in the whole skin (SC+[E+D])” value is on record as 1 h. Also, in the series with Rat aorta, the “time of maximum relaxation” value is 5 to 10 min. In addition, in the series with porcine ear skin [3] (4 hours post-application), the “localisation of fluorescence” value is “strong fluorescence in the SC and viable epidermis”. In addition, in the series on porcine ear skin [4], the skin penetration entry is given as “significantly enhanced”.

In the case of “FITC-(b)AWLRRIKA ({FITC}-[βAla]WLRRIKA) [WLRRIKA monomer]”, the “fluorescence within the cells” value with 3T3 fibroblasts is recorded as “not able to penetrate the cells”.
